In the RNAGym collection of RNA variant scans (doi:10.7554/elife.80360):

B1: Twister Ribozyme (parent)
chain: AACACUGCCAAUGCCGGUCCCAAGCCCGGAUAAAAGUGGAGGGGGCGG

Variants of: B1
Test: self-cleavage, relative activity (ratio to wild type); higher = more cleavage; co-transcriptional

First: AACACUGCCAAUGCCGGUCCCAUGCCCGGAUAAAAGUGGAGGGGGCCG
Second: AACACUGCCAAUGCCGGUCCCAUGCCCGGAUAAAAGUGGAGGGGGCAG
The self-cleavage of the first is lower: 0.213 for the first, 0.245 for the second.

Compared with AACACUGCCAAUGCCGGUCCCAAACCCGGAUCAAAGUGGAGGGGGCGG, AACACUGCCAAUGCCGGUCCCAUGCCCGGAUAACAGUGGAGGGGGCGG is higher in self-cleavage: 0.0703 for the first, 0.0966 for the second.

Compared with AACACUGCCAAUGCCGGUCCCAUGCCCGGAUAAGAGUGGAGGGGGCGG, AACACUGCCAAUGCCGGUCCCAAACCCGGAUACAAGUGGAGGGGGCGG is higher in self-cleavage: 0.0731 for the first, 0.0756 for the second.

Compared with AACACUGCCAAUGCCGGUCCCAAACCCGGAUAGAAGUGGAGGGGGCGG, AACACUGCCAAUGCCGGUCCCAUGCCCGGAUAAAAGUGGAGGGGGCGU is higher in self-cleavage: 0.097 for the first, 0.439 for the second.

Going from AACACUGCCAAUGCCGGUCCCAUGCCCGGAUAAAAGUGGAGGGGGCGA to AACACUGCCAAUGCCGGUCCCAUGCCCGGAUAAAAGUGGAGGGGGCGC, the self-cleavage rises from 0.389 to 0.48.

Compared with AACACUGCCAAUGCCGGUCCCAAACCCGGAUAAAAGUGGAGGGGGGGG, AACACUGCCAAUGCCGGUCCCAUGCCCGGAUAAAAGUGGACGGGGCGG is higher in self-cleavage: 0.0598 for the first, 0.0988 for the second.

Going from AACACUGCCAAUGCCGGUCCCAUGCCCGGAUAAAAGUGGAUGGGGCGG to AACACUGCCAAUGCCGGUCCCAUGCCCGGAUAAAAGUGGAAGGGGCGG, the self-cleavage falls from 0.137 to 0.126.

Compared with AACACUGCCAAUGCCGGUCCCAGGCCCGGAUAAAAGUGGAGGGGUCGG, AACACUGCCAAUGCCGGUCCCAGGCCCGGAUAAAAGUGGAGGGGCCGG is higher in self-cleavage: 0.158 for the first, 0.181 for the second.

Going from AACACUGCCAAUGCCGGUCCCAUGCCCGGAUAAAAGUGGAGGGGACGG to AACACUGCCAAUGCCGGUCCCAUGCCCGGAUAUAAGUGGAGGGGGCGG, the self-cleavage falls from 0.391 to 0.307.

First: AACACUGCCAAUGCCGGUCCCAGGCCCGGAUAAAAGUGGAGGGCGCGG
Second: AACACUGCCAAUGCCGGUCCCAAACCCGGAUAAAGGUGGAGGGGGCGG
The self-cleavage of the first is higher: 0.508 for the first, 0.0812 for the second.

Going from AACACUGCCAAUGCCGGUCCCAUGCCCGGAUAAAAGUGGCGGGGGCGG to AACACUGCCAAUGCCGGUCCCAUUCCCGGAUAAAAGUGGAGGGGGCGG, the self-cleavage falls from 0.103 to 0.0593.

Compared with AACACUGCCAAUGCCGGUCCCAUGGCCGGAUAAAAGUGGAGGGGGCGG, AACACUGCCAAUGCCGGUCCCAUGCCCGGACAAAAGUGGAGGGGGCGG is higher in self-cleavage: 0.0583 for the first, 0.682 for the second.

Going from AACACUGCCAAUGCCGGUCCCAUGCCCGGAAAAAAGUGGAGGGGGCGG to AACACUGCCAAUGCCGGUCCCAGGCCCGGAUAAAAGUGGAGGGGGCGA, the self-cleavage falls from 0.502 to 0.327.

Compared with AACACUGCCAAUGCCGGUCCCAGGCCCGGAUAAAAGUGGAGGGGGCGC, AACACUGCCAAUGCCGGUCCCAGGCCCGGAUAAAAGUGGAGGGGGCGU is lower in self-cleavage: 0.516 for the first, 0.354 for the second.

First: AACACUGCCAAUGCCGGUCCCAGGCCCGGAUAAAAGUGGAGGUGGCGG
Second: AACACUGCCAAUGCCGGUCCCAGGCCCGGAUAAAAGUGGAGGAGGCGG
The self-cleavage of the first is lower: 0.0895 for the first, 0.0981 for the second.

Compared with AACACUGCCAAUGCCGGUCCCAAACACGGAUAAAAGUGGAGGGGGCGG, AACACUGCCAAUGCCGGUCCCAAACGCGGAUAAAAGUGGAGGGGGCGG is lower in self-cleavage: 0.123 for the first, 0.0568 for the second.

First: AACACUGCCAAUGCCGGUCCCAGGCCCGGAUAAAAGUGGAGGGGGCUG
Second: AACACUGCCAAUGCCGGUCCCAAACCCGGAUAAAAGUGGCGGGGGCGG
The self-cleavage of the first is higher: 0.17 for the first, 0.105 for the second.

Compared with AACACUGCCAAUGCCGGUCCCAUGCACGGAUAAAAGUGGAGGGGGCGG, AACACUGCCAAUGCCGGUCCCAUGCUCGGAUAAAAGUGGAGGGGGCGG is lower in self-cleavage: 0.234 for the first, 0.153 for the second.

First: AACACUGCCAAUGCCGGUCCCAUGCCCGGAUAAAAGUGGAGGCGGCGG
Second: AACACUGCCAAUGCCGGUCCCAAAGCCGGAUAAAAGUGGAGGGGGCGG
The self-cleavage of the first is higher: 0.146 for the first, 0.0958 for the second.

Going from AACACUGCCAAUGCCGGUCCCAUGCCCGAAUAAAAGUGGAGGGGGCGG to AACACUGCCAAUGCCGGUCCCAUGCCCGCAUAAAAGUGGAGGGGGCGG, the self-cleavage falls from 0.285 to 0.0484.

First: AACACUGCCAAUGCCGGUCCCAUGCCCGUAUAAAAGUGGAGGGGGCGG
Second: AACACUGCCAAUGCCGGUCCCAAACCCGGAUAAGAGUGGAGGGGGCGG
The self-cleavage of the first is higher: 0.315 for the first, 0.0576 for the second.

Going from AACACUGCCAAUGCCGGUCCCAUGCCCGGAUAAAAGUGGAGGGUGCGG to AACACUGCCAAUGCCGGUCCCAUGCCCGGAUAAAAGUGGAGGGAGCGG, the self-cleavage rises from 0.484 to 0.679.

Compared with AACACUGCCAAUGCCGGUCCCAAACCUGGAUAAAAGUGGAGGGGGCGG, AACACUGCCAAUGCCGGUCCCAUGCCGGGAUAAAAGUGGAGGGGGCGG is lower in self-cleavage: 0.106 for the first, 0.0875 for the second.

Compared with AACACUGCCAAUGCCGGUCCCAUGCCAGGAUAAAAGUGGAGGGGGCGG, AACACUGCCAAUGCCGGUCCCAUGCCCGGAUCAAAGUGGAGGGGGCGG is higher in self-cleavage: 0.0759 for the first, 0.464 for the second.

Going from AACACUGCCAAUGCCGGUCCCAUGCCCGGAUUAAAGUGGAGGGGGCGG to AACACUGCCAAUGCCGGUCCCAGGCCCGGAUAAAAGCGGAGGGGGCGG, the self-cleavage falls from 0.494 to 0.142.

Going from AACACUGCCAAUGCCGGUCCCAUGCCCGGUUAAAAGUGGAGGGGGCGG to AACACUGCCAAUGCCGGUCCCAUGCCCGGGUAAAAGUGGAGGGGGCGG, the self-cleavage rises from 0.501 to 0.506.

Going from AACACUGCCAAUGCCGGUCCCAUGCCCGGAUAAAAGUGUAGGGGGCGG to AACACUGCCAAUGCCGGUCCCAUGCCCGGAUAAAACUGGAGGGGGCGG, the self-cleavage rises from 0.119 to 0.12.
